Laboratory results as given in the DeepSol protein solubility set.

Assay: soluble on expression in E. coli; label from the status in PepcDB or PDB records

Sequence | soluble on expression in E. coli
MTEHLDVVIVGAGISGVSAAWHLQDRCPTKSYAILEKRESMGGTWDLFRYPGIRSDSDMYTLGFRFRPWTGRQAIADGKPILEYVKSTAAMYGIDRHIRFHHKVISADWSTAENRWTVHIQSHGTLSALTCEFLFLCSGYYNYDEGYSPRFAGSEDFVGPIIHPQHWPEDLDYDAKNIVVIGSGATAVTLVPALADSGAKHVTMLQRSPTYIVSQPDRDGIAEKLNRWLPETMAYTAVRWKNVLRQAAVYSACQKWPRRMRKMFLSLIQRQLPEGYDVRKHFGPHYNPWDQRLCLVPNGDLFRAIRHGKVEVVTDTIERFTATGIRLNSGRELPADIIITATGLNLQLFGGATATIDGQQVDITTTMAYKGMMLSGIPNMAYTVGYTNASWTLKADLVSEFVCRLLNYMDDNGFDTVVVERPGSDVEERPFMEFTPGYVLRSLDELPKQGSRTPWRLNQNYLRDIRLIRRGKIDDEGLRFAKRPAPVGV | soluble
MTEHVITSKCESPLLQAFVDNYLLLVKIAARIVGCRSRAEDVVQDAFFRLRSAPQATLTFKAQLSYLFQIVRNLAIDHYRKQALEQKYTGPEAEGLNVVIQGASPEISHINFTSLEKIADALSELPPRTRYAFEMYRLHGVPQKDIAKELGVSPTLVNFMIRDALIHCRKVNGTTAEA | not soluble
MTEMTKPFLIVIVGPTASGKTELSIEVAKKFNGEIISGDSMQVYQGMDIGTAKVTTEEMEGIPHYMIDILPPDASFSAYEFKKRAEKYIKDITRRGKVPIIAGGTGLYIQSLLYNYAFEDESISEDKMKQVKLKLKELEHLNNNKLHEYLASFDKESAKDIHPNNRKRVLRAIEYYLKTKKLLSSRKKVQQFTENYDTLLIGIEMSRETLYLRINKRVDIMLGHGLFNEVQHLVEQGFEASQSMQAIGYKELVPVIKGNISMENAVEKLKQHSRQYAKRQLTWFKNKMNVHWLNKERMSLQMMLDEITTQINKRSSNHDCKRKHPRPSTRELLEHHHHHH | soluble
MTENILRKSDEEIQKEITARVKALESMLIEQGILTTSMIDRMAEIYENEVGPHLGAKVVVKAWTDPEFKKRLLADGTEACKELGIGGLQGEDMMWVENTDEVHHVVVCTLCSCYPWPVLGLPPNWFKEPQYRSRVVREPRQLLKEEFGFEVPPSKEIKVWDSSSEMRFVVLPQRPAGTDGWSEEELATLVTRESMIGVEPAKAV | soluble
MTENNVDPYEVVKKRYESTVDSFVLSDLFQPTLESNQELIDDVKDNRLVIYTAFTGNYDELKEPEFIDENCDYVCFTENPDLESDTWEIVQMEKSTLDDNRKAKQYRLFTDKYFPEYKYSFWLDGTFKIVGSIREYIYKYAKSKMLVVVHPERDCIYDEAVMSMPFPRYSNYTMTKQVEKYRSEGMPEHYGLPATGALFRAHNDPEIISIMRQWWREVVNYTNQDQLSLPYVMWKNNFHPSVSDVYYWVNEYWSKEGSYQHNFEIEDYITSRNLIESLEGNIKDKNTLTKEEINLLFNDIDALRDEANALNIARDHWDRQIRGVRNSTSWLEHHHHHH | soluble
MTERKIFNRLKSVLAEKGKTNLWLTETLDKNKTTVSKWCTNDVQPSLETLFDIAEALNVDVRELIVSTKR | soluble
MTETGGRHLLEALTLCEVILSRYKRCGLQVDETETKAFQAVSERFHEITHATQGDNAAFVKSQKIIKMAPAIPTIGAVFQTPLESVTKLMEKCIDLCLPIKEVFIMLNEQISAVLRTKNTRTYYLDSGDDLLKDPVNGIAALVDERTPLGKTLFCTRPFSIAGTLYIPLLHNETVIGCVESPSGRTDYHSQAIIDAVLRVAATVIHNTIESERLNWNKEKAEAMLTMATQLARDNLDEAVLANSIMNTAKVLTESDRCSIFLVKDDTLEAHFEDGNIVAIPIATGIAGYVAQTGQTVKISDAYSDDRFNREVDKATGYRTKTILCMPVTYEGSIVAVAQLINKLDMVTESGLRLPRTFGKRDEELFQTFSMFAGASLRNCRINEKLINEKRKSDAILDVVTLLSNTDIRDVDGIVRHVLHGAKRLLYADRSALFLVDKERNELYSRIADSVAGKEIRFPCGQGIAGVVASTGIGENILDAYQDPRFNREVDKQLGYRTQTLLCEPIVLNGEILAVVQLVNKLNEAGEVTVFTESDRETFRVFSLFAGISINNSHLLEFAVKAGREMMELNENRALAGGRTGSLRNIKRPLAITETERQAVRDINLAHLDITSIDFDLFYLRENMDLPLDAAAAVAYRLIVGTGLPQKFRCRDDTLLNFILQCRKKYRNVPYHNFYHVVDVCQTIYTFLYKGAVCEKLTELDCFVLLVTALVHDLDHMGLNNSFYLKTDSPLGILSSASGNASVLEVHHCNLAVEILSDPDSDVFEGLDATDRTLAYRSMIDCVLATDMAKHNELLSLFLVAMEKPYRIGDVASRQMMMDVIVKAGDVSNVTKPFDISRLWAMAVTEEFYRQGDMEKEKGVEVLPMFDRSKNTELAKGQIGFIDFVAGPFFKKIVSASLTGMQWTVERVESNRLEWQRTLDLKAAGDGNK | not soluble
MTEVNAFADTPWRAGVIQDFARSELFDRTFEEGMQLVEETAAYLDGAGRHDSKVLSRNAALGYATESMRLTTRLMQVASWLLVQRAVREGEMPPEAACAEAYRLAEEAPADGPAVEELPFGLMNLLQRSERLYERVRHLDRRMYVESPNEEAPRPVQNQLDRLTAAFGG | soluble
MTFFFDDRDQAVPYTATADDVAPTGQQIWQELQSGKWGEIAPFTVTPEMLEAAREARRQEIEAWRTEQEAKPFTFEWNGRIWNAGPDSLGRLSPVVMLAKSVTAQTHMAWSDADNQQVKLSMPELEELAESQKTALLTEAESVIRQPGRAVRLNRETDESGEARGRASVFPESVRSVVYAM | not soluble
MTFMSEVKFETVEQKASYGIGLQMGQQLAGSGLEGLNVAAIAAGIATALVGEQPAISIDEINQALHAIHMRAEEARQEAAKVAASEGEAFLKDNALRPEVTVLESGLQYEVLVEGNGAIPTSDKSVRVHYHGQLVDGTVFDSSVSRGQPAEFPVTGVIRGWVEALQLMPVGSKWKLYIPHNLAYGERGAGAAIPPFAALVFEVELLDIL | not soluble
MTFRYRGPSPKGDQPKAIAGLVEALRDGERFVTLLGATGTGKTVTMAKVIEALGRPALVLAPNKILAAQLAAEFRELFPENAVEYFISYYDYYQPEAYVPGKDLYIEKDASINPEIERLRHSTTRSLLTRRDVIVVASVSAIYGLGDPREYRARNLVVERGKPYPREVLLERLLELGYQRNDIDLSPGRFRAKGEVLEIFPAYETEPIRVELFGDEVERISQVHPVTGERLRELPGFVLFPATHYLSPEGLEEILKEIEKELWERVRYFEERGEVLYAQRLKERTLYDLEMLRVMGTCPGVENYARYFTGKAPGEPPYTLLDYFPEDFLVFLDESHVTVPQLQGMYRGDYARKKTLVDYGFRLPSALDNRPLRFEEFLERVSQVVFVSATPGPFELAHSGRVVEQIIRPTGLLDPLVRVKPTENQILDLMEGIRERAARGERTLVTVLTVRMAEELTSFLVEHGIRARYLHHELDAFERQALIRDLRLGHYDCLVGINLLREGLDIPEVSLVAILDADKEGFLRSERSLIQTIGRAARNARGEVWLYADRVSEAMQRAIEETNRRRALQEAYNLEHGITPETVRKEVRAVIRPEGYEEAPLEADLSGEDLRERIAELELAMWQAAEALDFERAARLRDEIRALEARLQGVRAPEPVPGGRKRKRR | soluble
MTFSKSTTDKPSYTYEELSVKNKAYVWHPFTQMKDYLEEDPVIIERGEGRKLYDVNGNEYWDGVSSIWLNVHGHQVPELDEAIREQLNKIAHSTMLGLANVPSILLAEKIIEVVPEGLKKVFYSDSGSSAVEIAIKMAFQYWQHKGKPKKQRFVTLKEAYHGDTIGAVSVGAIDLFYQVYSSLLFEAIKMPYPYTYRSPYGNDKAEIVKKHLEEMEELLKDKHEEIAAIIVEPLMQGAGGMITMPKGYLRGLRNLCTKYNVLFITDEVATGFGRTGKMFACEHENVTPDILTAGKGLTGGYLPVAITVTTDEIYNAFLGSYEEQKTFFHGHSYTGNPLGCAVAIANLELYEKTNLIEEVARKTEYVATQLEELFACKHVGDIRQCGLMVGIELVKNKETKEAFEWTERVGVQVCKRSRELGMILRPLGNTIVFMPPLASTIDEIDEMLRILYKAISDITEGE | not soluble
MTGFKVSSFFYILALSRFFNAGRERACDKLKITVTHLYWFIIRKLLLHEVHVHVSRVCNVSFILSPCLFRNFFTLSLHVLYVMYEQALTPEFFRQWWDIIQSK | soluble
MTGQSTGTGEYSDFVAVFRDRYEKLAGKLRGRVNHRPTDAIENMGGGSDAALIGMVSDIRSTASGHWLVELEDTNGTFPCLVMKDRPIADLVQQLLMDEVIAVEGTLADDAGILFVDSLYFPDVPRTHNPSTADRHVQAALISDVHVGSQEFMEDAWHRFTDWLHTPEAEHVEYLLIAGDMVEGVGIYPEQDKELDIIDIYDQYRAFSEYLKEVPADMEIRMIPGNHDAVRLAEPQPGFDEELRDIMSAHDAQVHSNPSLVTVEGVTVLMYHGVSLDEVIAELPDEEASYEEPHRAMYQLLKKRHVAPQYGGHTRLAPEDRDYLVMEEVPDVFHTGHVHKLGWGEYHNVVALNSGCWQAQTEFQKSVNIDPDAGFAPILDLDTLEMTVRKFS | not soluble
MTHILFDSRRFLQLGAFASLSTALAGAARYVTSTSNNEPADNTPLTIGYVPIAGSAPIAIADALGLFKKHGVNVTLKKYSGWSDLWTAYATEQLDVAHMLSPMTVAINAGVTNASRPTELSFTQNTNGQAITLASKHYGSVNSAADLKGMVLGIPFEYSVHALLLRDYLVSNAVDPIADLELRLLRPADMVAQLTVEGIDGFIGPGPFNERAISNGSGRIWLLTKQLWDKHPCCAVAMAKEWKAEHPTAAQGVLNALEEASAILSNPAQFDSSARTLSQEKYLNQPATLLDGPS | not soluble
MTHPVAVKACLFDMDGLLINTEDIYTETLNETLAEFGKGPLTWDVKIKLQGLPGPKQEKG | soluble
MTHQDTIASEDGSDINILLNTVQNAKALVIFAHGAGANMSHEFMNETSRLLNHLGINVLRFNFPFMDKRALTGKKYPPDRMPKLLLCYETVIEYVVDKKLSHQLPLFIGGKSMGSRVAASLVADSDLLKSRLLNHISGVFCIGYPFHPAKKPEKLRLEPLVDANKPVLIVQGDRDTLGNKVEIASYRLAEHCQCVFLEDGDHSLKPRVKSGFTHQAHMQSAVEEIVTFIERVTISS | not soluble
MTHRSSRLEVGPVARGDVATIEHAELPPGWVLTTSGRISGVTEPGELSVHYPFPIADLVALDDALTYSSRACQVRFAIYLGDLGRDTAARAREILGKVPTPDNAVLLAVSPNQCAIEVVYGSQVRGRGAESAAPLGVAAASSAFEQGELVDGLISAIRVLSAGIAPG | soluble
MTHSQQSMVDTFRASLFDNQDITVADQQIQALPYSTMYLRLNEGQRIFVVLGYIEQEQSKWLSQDNAMLVTHNGRLLKTVKLNNNLLEVTNSGQDPLRNALAIKDGSRWTRDILWSEDNHFRSATLSSTFSFAGLETLNIAGRNVLCNVWQEEVTSTRPEKQWQNTFWVDSATGQVRQSRQMLGAGVIPVEMTFLKPAPLEHHHHHH | soluble
MTHTLQATNPLDQTAWHAWHFSRNKEAISRTGATSLSATEWISATTLKDAHTFPSLPGRWYKRGGGVVGAHLPPAFATTGTVQLRPGELLIAEDFTLTVIERLGQFALQVFDARNPKRFEFHSIAAFPPSEEWRIEARFFPEPDTVNTAAADGVIVATPTAGWVHFLKGRLDYRLRVTVQKNNLRALFSDNSSTLGVYQHRFVDIPRPDAEGNTIIDFNRAYLPPKALNRKFLCPSPSLNNHLNLTVEAGEKWVVAGGLEHHHHHH | soluble
MTIAILSTGDEIIHGDTLNTNAHYIAHALCSEGLPLGLQVACSDKENEIIDSLNFLTQHHDILILIGGLGPTKDDITRFALAKFTKEPLLQHADALDHIEKKANIAKISLNQGNLQQCLFPANARLFPNPYGTAMGCSYSWKGKVFILLPGPPRECLPMFNQDVLPLLLQTSRHSNK | not soluble
